Laboratory results from patent US20090041768A1 (published 2009).

Molecular target: FcRn
Experiment: Biacore FcRn binding

EC50: ~680 nM
B1: Fc-loop TN8-19-07 (clone #6951) (Fc fusion)
chain: MDKTHTCPPCPAPELLGGPSVFLFPPKPKDTLMISRTPEVTCVVVDVSHEDPEVKFNWYVDGVEVHNAKTKPREEQYNSTYRVVSVLTVLHQDWLNGKEYKCKVSNKALPAPIEKTISKAKGQPREPQVYTLPPSRDELGGLADHGQCIRWPWMCPPEGWEGGTKNQVSLTCLVKGFYPSDIAVEWESNGQPENNYKTTPPVLDSDGSFFLYSKLTVDKSRWQQGNVFSCSVMHEALHNHYTQKSLSLSPGK
notes: also called Fc-loop-myo7; myostatin loop peptibody
